Test [1] has as its target protein PADI4 (peptidylarginine deiminase 4) antigen (human) (UniProt Q9UM07). The test is described as follows: sandwich ELISA, capture 197, dilution row G.
Test [2] deals with protein PADI2 (UniProt Q9Y2J8). The test is described as follows: sandwich ELISA, capture 197, dilution row G. On the technique in general: In an ELISA, binding on a coated surface is turned into a signal by an enzyme label.
For test [3], the target named is protein PADI4 (peptidylarginine deiminase 4) antigen (human) (UniProt Q9UM07). The test is described as follows: sandwich ELISA, capture 197, dilution row D.
Test [4] has as its target protein PADI2 (UniProt Q9Y2J8). The test is described as follows: sandwich ELISA, capture 197, dilution row D.
Test [5] deals with protein PADI4 (peptidylarginine deiminase 4) antigen (human) (UniProt Q9UM07). The test is described as follows: sandwich ELISA, capture 197, dilution row A.
Test [6] concerns the target protein PADI2 (UniProt Q9Y2J8). The test is described as follows: sandwich ELISA, capture 197, dilution row A.
Test [7] has as its target protein PADI4 (peptidylarginine deiminase 4) antigen (human) (UniProt Q9UM07). Put plainly: sandwich ELISA, capture 197, dilution row E.
The target of test [8] is protein PADI2 (UniProt Q9Y2J8). The test is described as follows: sandwich ELISA, capture 197, dilution row E.
The target of test [9] is protein PADI4 (peptidylarginine deiminase 4) antigen (human) (UniProt Q9UM07). Put plainly: sandwich ELISA, capture 197, dilution row H (maybe blank).
For test [10], the target named is protein PADI2 (UniProt Q9Y2J8). The test is described as above.
For test [11], the target named is protein PADI4 (peptidylarginine deiminase 4) antigen (human) (UniProt Q9UM07). The test is described as follows: sandwich ELISA, capture 197, dilution row C.
Test [12] addresses protein PADI2 (UniProt Q9Y2J8). The test is described as follows: sandwich ELISA, capture 197, dilution row C.
Test [13] addresses protein PADI4 (peptidylarginine deiminase 4) antigen (human) (UniProt Q9UM07). The test is described as follows: sandwich ELISA, capture 197, dilution row F.
Test [14] deals with protein PADI2 (UniProt Q9Y2J8). The test is described as follows: sandwich ELISA, capture 197, dilution row F.
In test [15] the target is protein PADI4 (peptidylarginine deiminase 4) antigen (human) (UniProt Q9UM07). Put plainly: sandwich ELISA, capture 197, dilution row B.
Test [16] has as its target protein PADI2 (UniProt Q9Y2J8). The test is described as follows: sandwich ELISA, capture 197, dilution row B.

UniProt Q9Y2J8, sequence (Q9Y2J8 whole entry): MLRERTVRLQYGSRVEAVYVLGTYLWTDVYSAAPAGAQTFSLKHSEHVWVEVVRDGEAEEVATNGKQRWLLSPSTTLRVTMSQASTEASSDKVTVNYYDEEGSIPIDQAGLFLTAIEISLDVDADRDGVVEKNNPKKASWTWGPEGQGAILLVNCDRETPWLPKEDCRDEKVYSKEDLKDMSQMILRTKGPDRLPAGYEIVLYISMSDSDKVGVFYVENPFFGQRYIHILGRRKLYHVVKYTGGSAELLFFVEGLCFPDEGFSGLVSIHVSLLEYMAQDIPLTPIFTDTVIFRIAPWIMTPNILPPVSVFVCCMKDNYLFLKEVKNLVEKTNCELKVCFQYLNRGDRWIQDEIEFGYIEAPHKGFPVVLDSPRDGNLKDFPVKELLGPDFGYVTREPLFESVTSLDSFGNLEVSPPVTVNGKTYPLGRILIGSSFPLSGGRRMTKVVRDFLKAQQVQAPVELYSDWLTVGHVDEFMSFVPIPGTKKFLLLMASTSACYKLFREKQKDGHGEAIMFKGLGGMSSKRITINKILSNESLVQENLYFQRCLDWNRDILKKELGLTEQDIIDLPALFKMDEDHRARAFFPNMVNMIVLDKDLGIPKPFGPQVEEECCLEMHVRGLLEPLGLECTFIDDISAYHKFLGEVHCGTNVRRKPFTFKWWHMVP

B1: monoclonal antibody 135-B9 (antibody, human IgG1, kappa, V domains shown)
VH: EVKLQESGPGILQPSQTLSLTCSFSGFSLSTSGMCVGWIRQPSGKGLEWLAHIWWDDDKRYNPALKSRLTISKDTSSNQVFLKIASVDTADTATYYCARYYRFDEGFDYWGQGTTLTVSS
VL: DIVITQDELSNPVTLGTSASISCRSSKSLLHSDGITYLYWYLQKPGQSPQLLIYQMSNLASGVPDRFSSSGSGTDFTLRISRVEAEDVGVYYCAQNLELPLTFGAGTKLELKR
In the case of B1, the OD in test [1] is 0.46 OD; with protein PADI2 [2], 0.05 OD; in test [3], 2.47 OD; in the test with protein PADI2 [4] it was 0.05 OD; in test [5], 4.13 OD; with protein PADI2 [6], 0.06 OD. For the same molecule, the OD came out at 1.69 OD in [7]; 0.05 OD with protein PADI2 [8]; 0.04 OD in [9]; 0.06 OD in the test with protein PADI2 [10]; 3.53 OD in test [11]; 0.05 OD with protein PADI2 [12]. For the same molecule, the OD amounted to 0.92 OD in test [13], 0.05 OD with protein PADI2 [14], 3.95 OD in [15] and 0.05 OD with protein PADI2 [16].
